This note sets out measurements from patent US20220389082A1 (CSL BEHRING LENGNAU, published 2022).

Test [1] addresses T1, D′D3 albumin fusion protein (D′D3-FP), dimer (human, Covalent homodimer: the two chains are joined by disulfide bridge(s) within the D3 part (paragraph 124 names Cys-1099, Cys-1142, Cys-1222, Cys-1225, Cys-1227 in SEQ ID NO:4 numbering). N-glycosylated, …).
T1 construct: It was expressed in CHO K1 cells with the VWF propeptide, which is cleaved by co-transfected furin; The dimer fraction was isolated by size exclusion chromatography; The description says the dimer is a disulfide-linked homodimer; In the SPR assay it was captured on an anti-albumin antibody; also called dimeric D′D3-FP; rD′D3-FP
The experiment in a line: SPR (Biacore T200), D′D3-FP captured on anti-albumin antibody, rVIII-SingleChain as analyte, single cycle kinetics, 25° C. Here is the method:
(§1) An anti-albumin antibody (MA1-20124, Thermo Scientific) was covalently coupled via its N-terminus to an activated CM 3 chip by NHS (N-Hydroxysuccinimide) and EDC […], both contained in the amine coupling kit (BR1000-50) from GE Healthcare. For immobilization 3 μg/mL of the antibody were diluted in sodium acetate buffer (10 mM, pH 5.0) and the antibody solution was flown over the chip for 7 min. at a flow rate of 10 μL/min. After the immobilization procedure non-coupled dextran filaments were saturated by flowing ethanolamine solution (1 M, pH 8.3) over the chip for 5 min (at a flow rate of 10 μL/min). The aim of saturating the flow cell was to minimize unspecific binding of the analytes to the chip. A reference flow cell was set up by saturating an empty flow cell with ethanolamine by using the same procedure as above.
(§2) Dimeric and monomeric D′D3-FP proteins, respectively, were immobilized to the covalently coupled anti-albumin antibody by a flow of the D′D3-FP proteins (5 μg/mL) over the chip for 3 min (flow rate of 10 μL/min).
(§3) To create binding curves for FVIII, each D′D3-FP protein preparation was diluted in running buffer (HBS-P+: 0.1 M HEPES, 1.5 M NaCl and 0.5% v/v Surfactant P20, pH 7.4; product code BR100671, GE Healthcare) to concentrations of 0.25 nM, 0.5 nM, 1 nM, 3 nM and 4 nM. […]
(Surface plasmon resonance follows binding to a sensor surface in real time, without labels.)

The target of test [2] is T1, D′D3 albumin fusion protein (D′D3-FP), …. The experiment in a line: SPR (Biacore T200), D′D3-FP captured on anti-albumin antibody, rVIII-SingleChain as analyte, single cycle kinetics, 25° C.; D′D3-FP dimer preparation. The procedure:
as §1, §2, §3

T1 sequence (chain, as listed by the source limits assumed, chain 1 of 2): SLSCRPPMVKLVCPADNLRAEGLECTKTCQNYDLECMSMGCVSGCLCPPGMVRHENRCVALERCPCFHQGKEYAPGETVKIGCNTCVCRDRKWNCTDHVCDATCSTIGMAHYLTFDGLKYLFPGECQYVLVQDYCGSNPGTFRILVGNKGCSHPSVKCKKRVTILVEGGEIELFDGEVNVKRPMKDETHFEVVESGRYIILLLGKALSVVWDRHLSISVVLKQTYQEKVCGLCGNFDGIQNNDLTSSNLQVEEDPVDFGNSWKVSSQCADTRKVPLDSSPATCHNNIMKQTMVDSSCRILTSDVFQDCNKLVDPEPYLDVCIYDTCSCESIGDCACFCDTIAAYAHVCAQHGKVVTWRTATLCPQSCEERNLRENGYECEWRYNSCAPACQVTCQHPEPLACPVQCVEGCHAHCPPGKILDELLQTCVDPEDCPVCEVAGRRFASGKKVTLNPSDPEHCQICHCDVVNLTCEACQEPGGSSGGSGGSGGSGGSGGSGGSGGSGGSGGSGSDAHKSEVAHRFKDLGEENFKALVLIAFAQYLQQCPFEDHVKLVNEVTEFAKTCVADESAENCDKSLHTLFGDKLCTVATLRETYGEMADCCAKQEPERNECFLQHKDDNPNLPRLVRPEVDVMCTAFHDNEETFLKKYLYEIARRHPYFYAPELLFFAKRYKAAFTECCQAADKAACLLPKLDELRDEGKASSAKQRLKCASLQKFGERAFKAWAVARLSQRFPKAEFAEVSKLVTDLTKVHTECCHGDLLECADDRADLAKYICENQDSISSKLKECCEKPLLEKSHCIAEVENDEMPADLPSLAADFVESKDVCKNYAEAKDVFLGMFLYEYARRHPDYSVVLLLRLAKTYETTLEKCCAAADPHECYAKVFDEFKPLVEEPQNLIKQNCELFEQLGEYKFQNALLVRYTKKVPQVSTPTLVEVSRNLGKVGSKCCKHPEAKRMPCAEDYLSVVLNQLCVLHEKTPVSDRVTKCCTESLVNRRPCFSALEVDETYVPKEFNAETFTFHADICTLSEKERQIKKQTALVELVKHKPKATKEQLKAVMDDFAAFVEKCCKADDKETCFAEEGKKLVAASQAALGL
T1 sequence (chain, as listed by the source limits assumed, chain 2 of 2): as the sequence (chain, as listed by the source limits assumed, chain 1 of 2) above

B1: rVIII-SingleChain (single chain Factor VIII molecule, construct dBN(64-53) of WO 2004/067566) (other)
chain: ATRRYYLGAVELSWDYMQSDLGELPVDARFPPRVPKSFPFNTSVVYKKTLFVEFTDHLFNIAKPRPPWMGLLGPTIQAEVYDTVVITLKNMASHPVSLHAVGVSYWKASEGAEYDDQTSQREKEDDKVFPGGSHTYVWQVLKENGPMASDPLCLTYSYLSHVDLVKDLNSGLIGALLVCREGSLAKEKTQTLHKFILLFAVFDEGKSWHSETKNSLMQDRDAASARAWPKMHTVNGYVNRSLPGLIGCHRKSVYWHVIGMGTTPEVHSIFLEGHTFLVRNHRQASLEISPITFLTAQTLLMDLGQFLLFCHISSHQHDGMEAYVKVDSCPEEPQLRMKNNEEAEDYDDDLTDSEMDVVRFDDDNSPSFIQIRSVAKKHPKTWVHYIAAEEEDWDYAPLVLAPDDRSYKSQYLNNGPQRIGRKYKKVRFMAYTDETFKTREAIQHESGILGPLLYGEVGDTLLIIFKNQASRPYNIYPHGITDVRPLYSRRLPKGVKHLKDFPILPGEIFKYKWTVTVEDGPTKSDPRCLTRYYSSFVNMERDLASGLIGPLLICYKESVDQRGNQIMSDKRNVILFSVFDENRSWYLTENIQRFLPNPAGVQLEDPEFQASNIMHSINGYVFDSLQLSVCLHEVAYWYILSIGAQTDFLSVFFSGYTFKHKMVYEDTLTLFPFSGETVFMSMENPGLWILGCHNSDFRNRGMTALLKVSSCDKNTGDYYEDSYEDISAYLLSKNNAIEPRSFSQNSRHPSTRQKQFNATTIPENTTLQSDQEEIDYDDTISVEMKKEDFDIYDEDENQSPRSFQKKTRHYFIAAVERLWDYGMSSSPHVLRNRAQSGSVPQFKKVVFQEFTDGSFTQPLYRGELNEHLGLLGPYIRAEVEDNIMVTFRNQASRPYSFYSSLISYEEDQRQGAEPRKNFVKPNETKTYFWKVQHHMAPTKDEFDCKAWAYFSDVDLEKDVHSGLIGPLLVCHTNTLNPAHGRQVTVQEFALFFTIFDETKSWYFTENMERNCRAPCNIQMEDPTFKENYRFHAINGYIMDTLPGLVMAQDQRIRWYLLSMGSNENIHSIHFSGHVFTVRKKEEYKMALYNLYPGVFETVEMLPSKAGIWRVECLIGEHLHAGMSTLFLVYSNKCQTPLGMASGHIRDFQITASGQYGQWAPKLARLHYSGSINAWSTKEPFSWIKVDLLAPMIIHGIKTQGARQKFSSLYISQFIIMYSLDGKKWQTYRGNSTGTLMVFFGNVDSSGIKHNIFNPPIIARYIRLHPTHYSIRSTLRMELMGCDLNSCSMPLGMESKAISDAQITASSYFTNMFATWSPSKARLHLQGRSNAWRPQVNNPKEWLQVDFQKTMKVTGVTTQGVKSLLTSMYVKEFLISSSQDGHQWTLFFQNGKVKVFQGNQDSFTPVVNSLDPPLLTRYLRIHPQSWVHQIALRMEVLGCEAQDLY
notes: also called FVIII
In test [1], B1 registered a koff of 0.0015 s⁻¹ and a kon of 4.5e+07 M⁻¹ s⁻¹. In addition, the affinity in test [2], expressed as Kd, was 0.034 nM.

Usually koff stands for the rate constant with which the complex falls apart. Low values mean slow dissociation, high ones fast dissociation. In general, kon refers to the second-order rate constant of association. The low end stands for slower complex formation, the high end for faster complex formation. By Kd is commonly meant a measure of binding affinity in units of concentration.
